Laboratory results reported in US9598497B2, “RSPO3 binding agents and uses thereof” (OncoMed Pharmaceuticals, Inc., priority 2012, dated 2017).

T1: human RSPO3 (Homo sapiens, UniProt Q9BXY4)
T1 construct: purchased R&D Systems
T1 sequence (Q9BXY4 22-272): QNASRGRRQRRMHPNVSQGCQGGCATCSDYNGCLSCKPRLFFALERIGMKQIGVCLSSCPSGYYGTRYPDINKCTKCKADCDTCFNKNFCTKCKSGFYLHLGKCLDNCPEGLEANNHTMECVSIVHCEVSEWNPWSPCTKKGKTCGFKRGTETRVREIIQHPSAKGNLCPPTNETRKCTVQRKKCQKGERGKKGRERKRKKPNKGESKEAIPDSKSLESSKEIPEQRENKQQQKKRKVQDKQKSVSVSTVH

T2: binding of RSPO3 to LGR5 (Homo sapiens, UniProt Q9BXY4)
T2 construct: expressed in transfected cells; host or cells: HEK-293T
T2 sequence (Q9BXY4 22-272): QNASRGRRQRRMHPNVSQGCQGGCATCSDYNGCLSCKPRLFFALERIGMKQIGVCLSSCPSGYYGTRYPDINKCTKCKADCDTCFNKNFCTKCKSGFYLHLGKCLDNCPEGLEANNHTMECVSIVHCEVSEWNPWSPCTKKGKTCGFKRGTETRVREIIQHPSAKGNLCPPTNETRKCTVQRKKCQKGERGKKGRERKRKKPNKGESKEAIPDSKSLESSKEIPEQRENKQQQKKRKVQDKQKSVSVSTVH


Experiments:
[1] = test system: OMP-LU102 lung tumor; test: OMP-LU102 NSCLC xenograft growth; assay type: in vivo, NOD-SCID mice; conditions: antibody 25 mg/kg once a week, carboplatin 50 mg/kg once a week, FIG. 11A
Protocol: OMP-LU102 is a patient-derived non-small cell lung cancer (NSCLC) xenograft that was selected for testing based on a high level of RSPO3 expression in microarray data. OMP-LU102 lung tumor cells (1×10^5) were injected into NOD-SCID mice. […] Carboplatin was dosed at 50 mg/kg once a week.

[2] = test system: gene sets characteristic of normal stem cells or cancer stem cells; test: Microarray gene set enrichment analysis of treated OMP-LU102 tumors; assay type: in vivo, NOD-SCID mice; conditions: RNA from OMP-LU102 tumors after treatment, FIG. 11B
Protocol: RNA was prepared from tumors from each of the four experimental groups following the treatment. Gene expression was characterized by microarray analysis.

[3] = test system: RSPO3-induced β-catenin signaling; test: TOPflash 6xTCF-luciferase reporter assay in HEK-293 cells with WNT3a and RSPO3; assay type: cell-based, human
Protocol: HEK-293 cells were transfected with a 6×TCF-luciferase reporter vector (TOPflash, Millipore, Billerica, Mass.). After 24-48 hrs, the transfected HEK-293 cells were incubated with a combination of WNT3a (5 ng/ml) and human RSPO3 (10 ng/ml, R&D BioSystems, Minneapolis, Minn.) in the presence of anti-RSPO3 antibodies 131R002 and 131R003. Antibodies 131R002 and 131R003 were added to the cells in 4-fold serial dilutions from 20 μg/ml to 0.02 μg/ml. As controls, cells were incubated with a combination of WNT3a and RSPO3, WNT3a only, RSPO3 only, or with no addition. The cells were incubated for 16 hours and luciferase activity was measured using Steady-Glo® Luciferase Assay System according to the manufacturer's instructions (Promega, Madison, Wis.).
HEK-293 cells were transfected with a 6×TCF-luciferase reporter vector (TOPflash, Millipore, Billerica, Mass.). After 24-48 hrs, the transfected HEK-293 cells were incubated with a combination of WNT3a and human RSPO3 in the presence of anti-RSPO3 antibodies 131R003, 131R003 CDR1 variant and 131R003 CDR3 variant. 131R003, 131R003 CDR1 variant, and 131R003 CDR3 variant were added to the cells in 5-fold serial dilutions from 20 μg/ml to 0.006 μg/ml. As controls, cells were incubated with a combination of WNT3a and RSPO3, WNT3a only, RSPO3 only, a control antibody, or with no addition. The cells were incubated for 16 hours and luciferase activity was measured using Steady-Glo® Luciferase Assay System according to the manufacturer's instructions (Promega, Madison, Wis.).
HEK-293 cells were transfected with a 6×TCF-luciferase reporter vector (TOPflash, Millipore, Billerica, Mass.). After 24-48 hrs, the transfected HEK-293 cells were incubated with a combination of WNT3a conditioned medium (5 ng/ml) and human RSPO3 (10 ng/ml, R&D BioSystems) in the presence of anti-RSPO3 antibodies 131R002, 131R006B, or 131R007. Antibodies 131R002, 131R006 or 131R007 were added to the cells in 5-fold serial dilutions from 20 μg/ml to 0.0064 μg/ml. As controls, cells were incubated with WNT3a conditioned medium alone, a combination of WNT3a conditioned medium and human RSPO3, or with no addition to cells. The cells were incubated for 16 hours and luciferase activity was measured using Steady-Glo® Luciferase Assay System according to the manufacturer's instructions (Promega, Madison, Wis.).
HEK-293 cells were transfected with a 6×TCF-luciferase reporter vector (TOPflash, Millipore, Billerica, Mass.). […] The cells were incubated for 16 hours and luciferase activity was measured using Steady-Glo® Luciferase Assay System according to the manufacturer's instructions (Promega, Madison, Wis.).

[4] = test system: OMP-LU45 non-small cell lung tumors; test: OMP-LU45 lung tumor xenograft growth; assay type: in vivo, NOD/SCID mice; conditions: 25 mg/kg once a week intraperitoneal, vs control antibody, FIG. 7A
Protocol: In OMP-LU45 non-small cell lung tumors, it has been observed that CD201^+ cells are more tumorigenic than CD201^− cells. […] Dissociated and sorted OMP-LU45 CD44^+CD201^+ lung tumor cells (5×10^4 cells) were injected into 6-8 week old NOD/SCID mice. Tumors were allowed to grow for 38 days until they reached an average volume of 140 mm^3. The mice were randomized (n=10 per group) and treated with anti-RSPO3 antibody 131R002 or a control antibody. […] Data are expressed as mean±S.E.M.

[5] = test system: OMP-LU25 lung tumor; test: OMP-LU25 lung tumor xenograft growth; assay type: in vivo, NOD/SCID mice; conditions: 25 mg/kg once a week intraperitoneal, vs control antibody, FIG. 7B
Protocol: In a study with a second lung tumor, dissociated OMP-LU25 lung tumor cells (5×10^4 cells) were injected into 6-8 week old NOD/SCID mice. Tumors were allowed to grow for 48 days until they reached an average volume of 110 mm^3. The mice were randomized (n=9 per group) and treated with anti-RSPO3 antibody 131R002 or a control antibody. […] Data are expressed as mean±S.E.M.
OMP-LU25 tumor cells (5×10^4) were injected into NOD-SCID mice. Tumors were allowed to grow for 33 days until they reached an average volume of 120 mm^3. Tumor-bearing mice were randomized into 4 groups (n=9 per group). Tumor-bearing mice were treated with either control antibody, anti-RSPO3 antibody 131R008, paclitaxel, or the combination of anti-RSPO3 antibody 131R008 and paclitaxel. Antibodies were dosed weekly at 20 mg/kg. Paclitaxel was dosed weekly at 15 mg/kg.

[6] = target: T1, human RSPO3; test: Biacore 2000 affinity, antibody captured by anti-human IgG, RSPO3 injected (Example 10); assay type: binding; conditions: human RSPO3 300 nM to 37.5 nM over captured antibody, Table 4
Protocol: The method used was different than described in Example 3. A goat anti-human IgG antibody was coupled to a carboxymethyl-dextran (CM5) SPR chip using standard amine-based chemistry (NHS/EDC) and blocked with ethanolamine. Antibodies (purified antibody or culture supernatant) were diluted to a concentration of 10 μg/ml in HBS-P-BSA (0.01M HEPES pH7.4, 0.15M NaCl, 0.005% v/v Polysorbate 20, 100 ug/ml BSA) and captured onto the chip via the anti-human IgG antibody. Human RSPO3 (R&D Systems) was serially diluted 2-fold from 300 nM to 37.5 nM in HBS-P-BSA and injected sequentially over the captured anti-RSPO3 antibodies. RSPO3 association and dissociation was measured at each concentration. After each antigen injection 5 μl of 100 mM H3P04 was injected to remove the antigen-antibody complex and a subsequent injection performed. Kinetic data were collected over time and were fit using the simultaneous global fit equation to yield affinity constants (KD values) for each antibody (Table 4).

[7] = target: T2, binding of RSPO3 to LGR5; test: FACS inhibition of RSPO3-biotin binding to LGR5-expressing HEK-293T cells; conditions: PE-streptavidin, flow cytometry, FIG. 9
Protocol: HEK-293T cells were transfected with a cDNA expression vector that encoded the extracellular domain of human LGR5 (FLAG-LGR5-CD4TM-GFP). Transfected cells were incubated with recombinant RSPO3-biotin fusion protein in the presence of anti-RSPO3 antibodies 131R006B or 131R007. Cells were incubated without antibody as a control. Cells were washed in PBS and binding of RSPO3 to LGR5-expressing transfected cells was determined by addition of PE-conjugated streptavidin and analysis by flow cytometry.

Kd [6] [nM]	Molecule	OMP-LU102 lung tumor growth [1]	expression of gene sets characteristic of normal stem cells or cancer stem cells [2]	RSPO3-induced β-catenin signaling ([3]; WNT3a 5 ng/ml + RSPO3 10 ng/ml, antibody 20 to 0.02 μg/ml, FIG. 3)	OMP-LU45 lung tumor growth [4]	OMP-LU25 lung tumor growth [5]	ability to inhibit β-catenin activity compared with 131R002 ([3]; WNT3a conditioned medium 5 ng/ml + human RSPO3 10 ng/ml, FIG. 8)	blocking binding of RSPO3 to LGR5-expressing cells [7]
	131R002: anti-RSPO3 antibody from a mammalian cell antibody library; heavy chain variable region SEQ ID NO:15, light chain variable region SEQ ID NO:17 (antibody, V domains shown, 131R002 Heavy chain variable region; 131R002/131R003 Light chain variable region) VH: QVQLQESGPELVKPGASVKISCKASGYTFTDYSIHWVKQNHGKSLDWIGYIYPSNGDSGYNQKFKNRATLTVDTSSSTAYLEVRRLTFEDSAVYYCATYFANYFDYWGQGTTLTVSSAST VL: DIVLTQSPASLAVSLGQRATISCKASQSVDYDGDSYMNWYQQKPGQPPKLLIYAASNLESGIPARFSGSGSGTDFTLNIHPVEEEDAATYYCQQSNEDPLTFGAGTKLELKR	inhibited OMP-LU102 lung tumor growth as a single agent	inhibited the expression of various gene sets characteristic of normal stem cells or cancer stem cells	reduced RSPO3-induced β-catenin signaling in a dose-dependent manner	inhibited growth	inhibited growth		
0.654	h131R007: humanized 131R003 variant, IgG2; heavy chain variable region SEQ ID NO:44, light chain variable region SEQ ID NO:72 (antibody, V domains shown, Humanized 131R005/131R007/131R008/ 131R010/131R011 Heavy chain variable region; Humanized 131R005/131R007/131R008 Light chain variable region) VH: QVQLVQSGAEVKKPGASVKVSCKASGYTFTDYSIHWVRQAPGQGLEWIGYIYPSNGDSGYNQKFKNRVTMTRDTSTSTAYMELSRLRSEDTAVYYCATYFANNFDYWGQGTTLTVSS VL: DIVLTQSPASLAVSLGQRATITCKASQSVDYDGDSYMNWYQQKPGQPPKLLIYAASNLESGIPARFSGSGSGTDFTLTINPVEAEDVATYYCQQSNEDPLTFGAGTKLELKR						greater ability to inhibit β-catenin activity than antibody 131R002	highly effective in blocking binding of RSPO3 to LGR5-expressing cells
